Measured values taken from PMC9824680.

Substrate: O=[N+]([O-])c1ccc(O[C@@H]2O[C@H](CO)[C@@H](O)[C@H](O)[C@H]2O)cc1
Assay: purified protein
Details: free enzyme, 100 mM citrate phosphate pH 6.5, 50 °C, pNPG 0.05–25 mM

B1: β-Glucosidase from Thermotoga maritima (bgl) (Thermotoga maritima MSB8) (protein)
chain: MNVKKFPEGFLWGVATASYQIEGSPLADGAGMSIWHTFSHTPGNVKNGDTGDVACDHYNRWKEDIEIIEKLGVKAYRFSISWPRILPEGTGRVNQKGLDFYNRIIDTLLEKGITPFVTIYHWDLPFALQLKGGWANREIADWFAEYSRVLFENFGDRVKNWITLNEPWVVAIVGHLYGVHAPGMRDIYVAFRAVHNLLRAHARAVKVFRETVKDGKIGIVFNNGYFEPASEKEEDIRAVRFMHQFNNYPLFLNPIYRGDYPELVLEFAREYLPENYKDDMSEIQEKIDFVGLNYYSGHLVKFDPDAPAKVSFVERDLPKTAMGWEIVPEGIYWILKKVKEEYNPPEVYITENGAAFDDVVSEDGRVHDQNRIDYLKAHIGQAWKAIQEGVPLKGYFVWSLLDNFEWAEGYSKRFGIVYVDYSTQKRIVKDSGYWYSNVVKNNGLED
Km: 220 ± 80 µM
Vmax: 7.27 µM/min
